Measurements as given in article PMC6555819, “Comprehensive study of nuclear receptor DNA binding provides a revised framework for understanding receptor specificity”.
Residue numbers refer to the chain shown, from its start.

B1: NRC3_random_hg19_270_o1 (dsDNA)
DNA 1: GCTATAGGAAGCAGGATGTTTCTTGAGAGTGTGGCCGCGATTGACAGCGTAGAATGAAGG
DNA 2: CCTTCATTCTACGCTGTCAATCGCGGCCACACTCTCAAGAAACATCCTGCTTCCTATAGC
B2: NRC3_random_hg19_14_o1 (dsDNA)
DNA 1: GCGCAGGGACTATGTGCATTAGGCCAGTTCCTCATGGCGATTGACAGCGTAGAATGAAGG
DNA 2: CCTTCATTCTACGCTGTCAATCGCCATGAGGAACTGGCCTAATGCACATAGTCCCTGCGC
B3: NRC3_wobSeed122_DR5_G21T_o1 (dsDNA)
DNA 1: GCGCTAGTTGGTCAGTAAAATGTCACACACCGGTCGGCGATTGACAGCGTAGAATGAAGG
DNA 2: CCTTCATTCTACGCTGTCAATCGCCGACCGGTGTGTGACATTTTACTGACCAACTAGCGC
B4: NRC3_wobSeed45_DR1_A9C_o1 (dsDNA)
DNA 1: GCTGTCAACGTTCAAAGGTAACGTAAGTATCCACACGCGATTGACAGCGTAGAATGAAGG
DNA 2: CCTTCATTCTACGCTGTCAATCGCGTGTGGATACTTACGTTACCTTTGAACGTTGACAGC
B5: NRC3_wobSeed67_DR2_o1 (dsDNA)
DNA 1: GCCCAGACAGGTGAGAAGGTAACTCAGCCTCGATTAGCGATTGACAGCGTAGAATGAAGG
DNA 2: CCTTCATTCTACGCTGTCAATCGCTAATCGAGGCTGAGTTACCTTCTCACCTGTCTGGGC
B6: NRC3_random_hg19_395_o1 (dsDNA)
DNA 1: GCGTACAATTGCCCTCTTAGCAGAGTTCTGGTGCATGCGATTGACAGCGTAGAATGAAGG
DNA 2: CCTTCATTCTACGCTGTCAATCGCATGCACCAGAACTCTGCTAAGAGGGCAATTGTACGC
B7: NRC3_wobSeed87_DR3_A14G_o1 (dsDNA)
DNA 1: GCCGAACTAGGTCGTCCAGGACAGTGAATACATTGAGCGATTGACAGCGTAGAATGAAGG
DNA 2: CCTTCATTCTACGCTGTCAATCGCTCAATGTATTCACTGTCCTGGACGACCTAGTTCGGC
B8: NRC3_wobSeed87_DR3_G10C_o1 (dsDNA)
DNA 1: B7 DNA 1 with G10C, G14A
DNA 2: B7 DNA 2 with C47T, C51G
B9: NRC3_wobSeed136_DR5_T12G_o1 (dsDNA)
DNA 1: GCTAGCCTAGGGCATTCAGGGGCCAGTATAGAAAGCGCGATTGACAGCGTAGAATGAAGG
DNA 2: CCTTCATTCTACGCTGTCAATCGCGCTTTCTATACTGGCCCCTGAATGCCCTAGGCTAGC
B10: NRC3_wobSeed39_DR1_A14T_o1 (dsDNA)
DNA 1: GCCGAACTAGGTCTAAGGACAGTGAAAGGCGACGTAGCGATTGACAGCGTAGAATGAAGG
DNA 2: CCTTCATTCTACGCTGTCAATCGCTACGTCGCCTTTCACTGTCCTTAGACCTAGTTCGGC
B11: NRC3_wobSeed63_DR2_A14G_o1 (dsDNA)
DNA 1: GCCGAACTAGGTCGCCAGGACAGTGAAGAGGTTGGAGCGATTGACAGCGTAGAATGAAGG
DNA 2: CCTTCATTCTACGCTGTCAATCGCTCCAACCTCTTCACTGTCCTGGCGACCTAGTTCGGC
B12: NRC3_wobSeed90_DR3_A14G_o1 (dsDNA)
DNA 1: GCCATACAGGGTCGGCTAGGCCAGAGTAGGGACGGCGCGATTGACAGCGTAGAATGAAGG
DNA 2: CCTTCATTCTACGCTGTCAATCGCGCCGTCCCTACTCTGGCCTAGCCGACCCTGTATGGC
B13: NRC3_wobSeed66_DR2_C13A_o1 (dsDNA)
DNA 1: GCAATACAGGGTAACTAGGCCAGAGTAGGTACGAATGCGATTGACAGCGTAGAATGAAGG
DNA 2: CCTTCATTCTACGCTGTCAATCGCATTCGTACCTACTCTGGCCTAGTTACCCTGTATTGC
B14: NRC3_random_hg19_245_o1 (dsDNA)
DNA 1: GCATGTTCCTTTACCCTAGCTGCAGTGGGTATCCACGCGATTGACAGCGTAGAATGAAGG
DNA 2: CCTTCATTCTACGCTGTCAATCGCGTGGATACCCACTGCAGCTAGGGTAAAGGAACATGC
B15: NRC3_random_hg19_361_o1 (dsDNA)
DNA 1: GCAAACTGGGAGGTGGAGGTTGTAGTAAGCCAAGATGCGATTGACAGCGTAGAATGAAGG
DNA 2: CCTTCATTCTACGCTGTCAATCGCATCTTGGCTTACTACAACCTCCACCTCCCAGTTTGC
B16: NRC3_wobSeed15_DR0_A14G_o1 (dsDNA)
DNA 1: GCCGAACTAGGTCGAGGACAGTGAATCTCCGCACGCGCGATTGACAGCGTAGAATGAAGG
DNA 2: CCTTCATTCTACGCTGTCAATCGCGCGTGCGGAGATTCACTGTCCTCGACCTAGTTCGGC
B17: NRC3_random_hg19_475_o1 (dsDNA)
DNA 1: GCATGAAAGTTTAGTATGTGTAGGGTAGTGCTTCATGCGATTGACAGCGTAGAATGAAGG
DNA 2: CCTTCATTCTACGCTGTCAATCGCATGAAGCACTACCCTACACATACTAAACTTTCATGC
B18: NRC3_random_hg19_15_o1 (dsDNA)
DNA 1: GCGTTGGTCAGCTGGTCTCGAACTCCTGACCTCAAGGCGATTGACAGCGTAGAATGAAGG
DNA 2: CCTTCATTCTACGCTGTCAATCGCCTTGAGGTCAGGAGTTCGAGACCAGCTGACCAACGC
B19: NRC3_wobSeed88_DR3_G10A_o1 (dsDNA)
DNA 1: GCTAGCCTAAGTCATGCGGGCCAGTATAGTGTCGGCGCGATTGACAGCGTAGAATGAAGG
DNA 2: CCTTCATTCTACGCTGTCAATCGCGCCGACACTATACTGGCCCGCATGACTTAGGCTAGC
B20: NRC3_wobSeed46_DR1_A16C_o1 (dsDNA)
DNA 1: GCTTACCAAGGTGAACGGTCGTTGATGCACGCCTTGGCGATTGACAGCGTAGAATGAAGG
DNA 2: CCTTCATTCTACGCTGTCAATCGCCAAGGCGTGCATCAACGACCGTTCACCTTGGTAAGC
B21: NRC3_wobSeed41_DR1_G17C_o1 (dsDNA)
DNA 1: GCATATGTAGGTTAAGCGTCATTCAGGTTGGTTCGCGCGATTGACAGCGTAGAATGAAGG
DNA 2: CCTTCATTCTACGCTGTCAATCGCGCGAACCAACCTGAATGACGCTTAACCTACATATGC
B22: NRC3_wobSeed21_DR0_T12C_o1 (dsDNA)
DNA 1: GCCGTCAAAGTCCAAGGTAACGTAACAGAAAGCAGCGCGATTGACAGCGTAGAATGAAGG
DNA 2: CCTTCATTCTACGCTGTCAATCGCGCTGCTTTCTGTTACGTTACCTTGGACTTTGACGGC
B23: NRC3_wobSeed21_DR0_T11A_o1 (dsDNA)
DNA 1: B22 DNA 1 with T11A, C12T
DNA 2: B22 DNA 2 with G49A, A50T
B24: NRC3_wobSeed82_DR3_G14C_o1 (dsDNA)
DNA 1: GCATCGAAAGGTCCACGAGGTGAGTATACACCGTTTGCGATTGACAGCGTAGAATGAAGG
DNA 2: CCTTCATTCTACGCTGTCAATCGCAAACGGTGTATACTCACCTCGTGGACCTTTCGATGC
B25: NRC3_wobSeed59_DR2_o1 (dsDNA)
DNA 1: GCTCTATTAGTTGATTAGGGCAACCGAAACAGCGGAGCGATTGACAGCGTAGAATGAAGG
DNA 2: CCTTCATTCTACGCTGTCAATCGCTCCGCTGTTTCGGTTGCCCTAATCAACTAATAGAGC
B26: NRC3_random_hg19_137_o1 (dsDNA)
DNA 1: GCCTCACGTGTTTCCTGGTAGAAATGCAGAGTACAAGCGATTGACAGCGTAGAATGAAGG
DNA 2: CCTTCATTCTACGCTGTCAATCGCTTGTACTCTGCATTTCTACCAGGAAACACGTGAGGC
B27: NRC3_wobSeed138_DR5_A14G_o1 (dsDNA)
DNA 1: GCGATACAGGGTCGGCTAGAGGCCAGAGTATGGAAAGCGATTGACAGCGTAGAATGAAGG
DNA 2: CCTTCATTCTACGCTGTCAATCGCTTTCCATACTCTGGCCTCTAGCCGACCCTGTATCGC
B28: NRC3_wobSeed93_DR3_C13T_o1 (dsDNA)
DNA 1: GCAGTCAAAGTTTATCTAGGTAACGTAAGATATGCTGCGATTGACAGCGTAGAATGAAGG
DNA 2: CCTTCATTCTACGCTGTCAATCGCAGCATATCTTACGTTACCTAGATAAACTTTGACTGC
B29: NRC3_wobSeed93_DR3_T12G_o1 (dsDNA)
DNA 1: B28 DNA 1 with T12G, T13C
DNA 2: B28 DNA 2 with A48G, A49C
B30: NRC3_wobSeed141_DR5_G10C_o1 (dsDNA)
DNA 1: GCAGTCAAACTTCAGGACGAGGTAACGTAAAGCACGGCGATTGACAGCGTAGAATGAAGG
DNA 2: CCTTCATTCTACGCTGTCAATCGCCGTGCTTTACGTTACCTCGTCCTGAAGTTTGACTGC
B31: NRC3_wobSeed101_DR4_A14C_o1 (dsDNA)
DNA 1: GCCCTTACGGGTCCCTCCAGGTTATAGCATCGGAGTGCGATTGACAGCGTAGAATGAAGG
DNA 2: CCTTCATTCTACGCTGTCAATCGCACTCCGATGCTATAACCTGGAGGGACCCGTAAGGGC

Each binder was assayed against PPARa:RXRa (Homo sapiens, UniProt Q07869;P19793 full;full) (assay: no ligand; PBM; 270 nM : 90 nM RXRa; PBS pH 7.4, 2% milk, 0.02% Triton X-100, 1 mM DTT, BSA, 0.4 mg/ml salmon testes DNA). Conditions: tags: GST kept;His cleaved; copies: 1;1; label: surface-attached array probe.
Sequence of PPARa:RXRa (Q07869 whole entry, chain 1 of 2): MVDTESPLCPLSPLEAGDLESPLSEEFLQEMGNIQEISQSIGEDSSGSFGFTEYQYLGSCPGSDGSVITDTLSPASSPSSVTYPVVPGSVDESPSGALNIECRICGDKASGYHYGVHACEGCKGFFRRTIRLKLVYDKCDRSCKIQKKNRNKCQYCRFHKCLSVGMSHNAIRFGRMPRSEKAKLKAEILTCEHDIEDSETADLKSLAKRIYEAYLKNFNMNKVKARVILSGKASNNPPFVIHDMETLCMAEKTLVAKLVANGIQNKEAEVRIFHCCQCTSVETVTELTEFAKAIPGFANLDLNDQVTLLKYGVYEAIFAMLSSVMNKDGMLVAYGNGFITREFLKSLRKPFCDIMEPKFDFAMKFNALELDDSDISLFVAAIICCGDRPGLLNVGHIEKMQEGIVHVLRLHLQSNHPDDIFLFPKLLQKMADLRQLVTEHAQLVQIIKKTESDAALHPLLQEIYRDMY
Sequence of PPARa:RXRa (P19793 whole entry, chain 2 of 2): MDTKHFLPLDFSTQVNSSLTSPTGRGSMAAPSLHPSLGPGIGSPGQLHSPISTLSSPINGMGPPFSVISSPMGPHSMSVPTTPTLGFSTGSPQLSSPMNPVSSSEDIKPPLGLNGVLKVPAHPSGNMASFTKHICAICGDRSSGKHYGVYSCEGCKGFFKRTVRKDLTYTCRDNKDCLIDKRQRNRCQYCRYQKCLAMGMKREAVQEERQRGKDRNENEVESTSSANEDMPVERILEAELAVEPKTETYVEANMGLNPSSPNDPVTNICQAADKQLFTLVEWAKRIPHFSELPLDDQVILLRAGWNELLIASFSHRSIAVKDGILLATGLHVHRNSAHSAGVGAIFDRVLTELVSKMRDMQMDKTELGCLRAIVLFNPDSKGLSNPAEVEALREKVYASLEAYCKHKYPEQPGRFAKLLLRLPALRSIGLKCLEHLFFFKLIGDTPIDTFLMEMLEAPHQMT
Summary of the method: (§1)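 Binding buffer was PBS pH 7.4 with 2% milk, 0.02% Triton X-100, 1 mM DTT, 0.2 mg/mL BSA and 0.4 mg/ml salmon testes DNA. In it, ligand-free nuclear receptor dimers were incubated 1 h on custom Agilent 4×180K protein-binding microarrays carrying double-stranded probes. Antibodies against each partner (one per run) detected binding, and z-scores were calculated against random background probes after regression normalization of scanned fluorescence.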

Row | Binder | binding signal
1 | B1 | -0.83 PBM z-score against 500 random probes
2 | B2 | -1.96 PBM z-score against 500 random probes

The binders below were run against RARg:RXRa (Homo sapiens, UniProt P13631;P19793 full;full) in the same assay as above. Conditions: tags: His kept;His cleaved; copies: 1;1; label: surface-attached array probe.
Sequence of RARg:RXRa (P13631 whole entry, chain 1 of 2): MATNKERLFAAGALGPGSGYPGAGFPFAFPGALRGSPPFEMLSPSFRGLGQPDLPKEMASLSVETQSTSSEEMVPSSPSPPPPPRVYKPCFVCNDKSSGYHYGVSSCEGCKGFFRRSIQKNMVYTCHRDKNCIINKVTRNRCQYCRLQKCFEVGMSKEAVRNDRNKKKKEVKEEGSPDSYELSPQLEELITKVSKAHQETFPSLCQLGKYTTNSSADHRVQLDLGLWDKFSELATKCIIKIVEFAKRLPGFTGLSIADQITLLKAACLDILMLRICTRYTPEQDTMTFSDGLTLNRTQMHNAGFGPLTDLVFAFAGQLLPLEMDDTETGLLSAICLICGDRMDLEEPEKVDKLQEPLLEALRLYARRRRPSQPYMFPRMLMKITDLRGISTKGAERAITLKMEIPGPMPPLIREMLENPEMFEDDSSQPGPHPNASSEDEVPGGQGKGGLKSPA
Sequence of RARg:RXRa (P19793 whole entry, chain 2 of 2): as the sequence (P19793 whole entry, chain 2 of 2) above
Summary of the method: as §1

Row | Binder | binding signal
3 | B1 | -0.4 PBM z-score against 500 random probes
4 | B2 | -0.69 PBM z-score against 500 random probes

These binders were tested against FXR:RXRa (Homo sapiens, UniProt Q96RI1;P19793 full;full) in the same assay as above. Conditions: tags: His kept;His cleaved; copies: 1;1; label: surface-attached array probe.
Sequence of FXR:RXRa (Q96RI1 whole entry, chain 1 of 2): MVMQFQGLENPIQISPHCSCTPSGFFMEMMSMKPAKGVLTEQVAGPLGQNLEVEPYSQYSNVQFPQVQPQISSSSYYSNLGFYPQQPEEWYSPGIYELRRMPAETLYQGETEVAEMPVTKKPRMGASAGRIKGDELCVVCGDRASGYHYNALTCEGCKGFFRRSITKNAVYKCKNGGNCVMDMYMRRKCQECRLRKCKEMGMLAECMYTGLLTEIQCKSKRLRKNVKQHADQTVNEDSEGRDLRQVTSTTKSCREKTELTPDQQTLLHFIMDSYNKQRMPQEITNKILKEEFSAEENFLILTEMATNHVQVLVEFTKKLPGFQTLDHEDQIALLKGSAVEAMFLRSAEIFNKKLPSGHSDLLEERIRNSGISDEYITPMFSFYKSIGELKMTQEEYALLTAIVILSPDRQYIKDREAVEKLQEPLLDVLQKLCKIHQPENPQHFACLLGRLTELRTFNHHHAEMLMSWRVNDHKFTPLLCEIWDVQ
Sequence of FXR:RXRa (P19793 whole entry, chain 2 of 2): as the sequence (P19793 whole entry, chain 2 of 2) above
Summary of the method: as §1

Row | Binder | binding signal
5 | B3 | 0.1 PBM z-score against 500 random probes
6 | B4 | 0.46 PBM z-score against 500 random probes
7 | B5 | 0.47 PBM z-score against 500 random probes
8 | B6 | 0.09 PBM z-score against 500 random probes
9 | B7 | 0.36 PBM z-score against 500 random probes
10 | B8 | 0.27 PBM z-score against 500 random probes
11 | B9 | -0.08 PBM z-score against 500 random probes
12 | B10 | 0.18 PBM z-score against 500 random probes
13 | B11 | 0.16 PBM z-score against 500 random probes
14 | B12 | 0.13 PBM z-score against 500 random probes
15 | B13 | -0.01 PBM z-score against 500 random probes
16 | B14 | 0.41 PBM z-score against 500 random probes
17 | B15 | 0.3 PBM z-score against 500 random probes
18 | B16 | 0.21 PBM z-score against 500 random probes
19 | B17 | 0.26 PBM z-score against 500 random probes
20 | B18 | 0.16 PBM z-score against 500 random probes
21 | B19 | -0.37 PBM z-score against 500 random probes
22 | B20 | 0.48 PBM z-score against 500 random probes
23 | B21 | 0.45 PBM z-score against 500 random probes
24 | B22 | 0.2 PBM z-score against 500 random probes
25 | B23 | 0.1 PBM z-score against 500 random probes
26 | B24 | 0.48 PBM z-score against 500 random probes
27 | B25 | 0.48 PBM z-score against 500 random probes
28 | B26 | 0.08 PBM z-score against 500 random probes
29 | B27 | 0.37 PBM z-score against 500 random probes
30 | B28 | 0.4 PBM z-score against 500 random probes
31 | B29 | 0.12 PBM z-score against 500 random probes
32 | B30 | 0.23 PBM z-score against 500 random probes
33 | B31 | 0.32 PBM z-score against 500 random probes
